Results reported in US20080025968A1 (YEDA RESEARCH AND DEVELOPMENT, published 2008).

Columns and labels:
p50, endogenous = biological target: T1, p50, endogenous (human, UniProt P19838 1-433); test: western blot of the p55 TNF receptor complex from Ramos cells (FIG. 6a)
T1 construct: also called NF-κB1 processed form
T1 sequence (looked up): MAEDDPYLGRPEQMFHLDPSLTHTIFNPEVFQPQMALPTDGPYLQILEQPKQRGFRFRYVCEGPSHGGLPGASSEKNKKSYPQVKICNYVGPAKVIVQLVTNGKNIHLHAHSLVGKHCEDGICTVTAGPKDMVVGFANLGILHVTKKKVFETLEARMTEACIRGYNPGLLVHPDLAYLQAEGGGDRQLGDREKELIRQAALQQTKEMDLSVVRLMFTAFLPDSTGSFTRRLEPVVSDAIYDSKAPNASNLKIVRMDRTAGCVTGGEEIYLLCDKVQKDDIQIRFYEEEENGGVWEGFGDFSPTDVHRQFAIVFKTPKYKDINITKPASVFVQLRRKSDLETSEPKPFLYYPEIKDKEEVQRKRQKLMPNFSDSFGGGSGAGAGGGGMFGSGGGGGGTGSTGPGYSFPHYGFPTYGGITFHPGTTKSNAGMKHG
Experimental: (§1) Transfections, immunoblotting and immunoprecipitations were performed as described in Example 2 and Example 3 of the Examples section. For immunoprecipitation of the CD70/CD27 ligand-receptor complexes from resting PBMC and Ramos cells, cell lysates were prepared as described for the kinase tests aforementioned and incubated for 4 hours at 4° C. with 25 μl of 50% M2-FLAG agarose beads per ml of lysate. The TNF-receptor complex was precipitated as described (Zhang et al., 2000). The signalosome from cell lysates was immunoprecipitated using a 1:1 mixture of two different antibodies against IKK1 (M-280 and H-744, Santa Cruz). Immunoprecipitation was allowed to continue for 2 hours at 4° C., using 10 μg of anti-IKKα antibodies adsorbed to 25 μl of 50% protein-A-Sepharose beads per ml of lysate.

[1] = biological target: T2, myc-NIK (NIK N-terminally fused to the myc tag) (human, UniProt Q99558 1-947); test: western blot of the p55 TNF receptor complex from NIK-deficient Ramos cells replenished with NIK (FIG. 6d)
T2 construct: Expressed in HEK293T cells for co-immunoprecipitation, the reporter test and the kinase test; also called myc-tagged NIK; wild type NIK
T2 sequence (Q99558 other isoform, or with tags, fused parts or gaps): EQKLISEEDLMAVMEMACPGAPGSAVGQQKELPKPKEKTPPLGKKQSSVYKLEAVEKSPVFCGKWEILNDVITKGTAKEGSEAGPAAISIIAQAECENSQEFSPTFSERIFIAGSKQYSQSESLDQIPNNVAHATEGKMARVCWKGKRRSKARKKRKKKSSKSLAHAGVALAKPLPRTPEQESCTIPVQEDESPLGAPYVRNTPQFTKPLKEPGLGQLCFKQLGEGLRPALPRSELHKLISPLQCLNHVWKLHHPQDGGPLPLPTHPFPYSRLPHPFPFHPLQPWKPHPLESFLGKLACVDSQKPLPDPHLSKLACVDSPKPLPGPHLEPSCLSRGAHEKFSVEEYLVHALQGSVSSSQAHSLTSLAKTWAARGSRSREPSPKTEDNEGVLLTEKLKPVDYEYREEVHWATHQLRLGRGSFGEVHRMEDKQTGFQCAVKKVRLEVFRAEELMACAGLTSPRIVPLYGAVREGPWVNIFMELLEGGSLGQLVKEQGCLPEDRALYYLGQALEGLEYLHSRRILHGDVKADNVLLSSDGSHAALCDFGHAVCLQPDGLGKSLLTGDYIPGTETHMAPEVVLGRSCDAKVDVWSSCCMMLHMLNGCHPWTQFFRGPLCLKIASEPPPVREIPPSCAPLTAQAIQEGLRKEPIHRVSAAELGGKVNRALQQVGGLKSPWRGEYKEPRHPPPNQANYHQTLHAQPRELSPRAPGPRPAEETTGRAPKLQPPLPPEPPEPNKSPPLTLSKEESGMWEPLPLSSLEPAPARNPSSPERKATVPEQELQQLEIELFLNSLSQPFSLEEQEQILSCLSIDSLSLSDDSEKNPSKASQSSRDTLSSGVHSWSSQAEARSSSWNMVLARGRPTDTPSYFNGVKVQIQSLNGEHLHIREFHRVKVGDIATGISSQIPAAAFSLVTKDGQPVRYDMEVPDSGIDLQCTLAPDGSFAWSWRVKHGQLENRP
Experimental: as §1
In NIK− cells, recruitment to the p55 TNF receptor occurred just as effectively as in the wild type cells (FIG. 6c, right panel). In contrast, recruitment of the signalosome components to CD27 was completely abolished (FIGS. 6c, d, left panels). Introduction of the wild type NIK, but not of “kinase-dead” NIK, to the NIK− cells reintated the recruitment in response to CD70 (FIG. 6d, middle and right panels). […] This recruitment could be observed both in cells expressing the wild type enzyme and in those that expressed its “[…]” mutant (FIG. 6d). […]

- binding result (p50, endogenous): binds
- binding result [1]: no binding
B1: p55 TNF receptor, endogenous in Ramos cells (receptor, human, UniProt P19438 30-455, looked up)
chain: LVPHLGDREKRDSVCPQGKYIHPQNNSICCTKCHKGTYLYNDCPGPGQDTDCRECESGSFTASENHLRHCLSCSKCRKEMGQVEISSCTVDRDTVCGCRKNQYRHYWSENLFQCFNCSLCLNGTVHLSCQEKQNTVCTCHAGFFLRENECVSCSNCKKSLECTKLCLPQIENVKGTEDSGTTVLLPLVIFFGLCLLSLLFIGLMYRYQRWKSKLYSIVCGKSTPEKEGELEGTTTKPLAPNPSFSPTPGFTPTLGFSPVPSSTFTSSSTYTPGDCPNFAAPRREVAPPYQGADPILATALASDPIPNPLQKWEDSAHKPQSLDTDDPATLYAVVENVPPLRWKEFVRRLGLSDHEIDRLELQNGRCLREAQYSMLATWRRRTPRREATLELLGRVLRDMDLLGCLEDIEEALCGPAALPPAPSLLR
notes: whole, on cells; TNF-receptor complex precipitated as described by Zhang et al., 2000
